Data taken from article PMC11614891.
Square brackets hold non-standard residues; d marks the D form. Ends that are not written are not given here. * marks the point of attachment. Biotin = O=C1N[C@H]2[C@H](CS[C@H]2CCCCC(=O)*)N1

Target: L-19437_(D-Pep-1)
Test: ITC; MicroCal PEAQ-ITC, 19 injections; peptide titrated over the binder (L-19437 15 uM, D-Pep-1 150 uM); PBS pH 7.4; One Set of Sites mode

Kd: 48.7 nM
stoichiometry N: 0.938 sites
Binder: Biotin-[dD][dE][dH][dE][dL][dL][dE][dT][dA][dA][dR][dW][dF][dY][dE][dI][dA][dK][dR][dA] [D-Pep-1]
